Assay results taken from patent US20080139466A1.

Target: human TSH receptor on stably transfected CHO cells (JP09 cells) (human) (UniProt P16473)
Experiment: cell-based or functional assay

Sequence of UniProt P16473 (P16473 21-764): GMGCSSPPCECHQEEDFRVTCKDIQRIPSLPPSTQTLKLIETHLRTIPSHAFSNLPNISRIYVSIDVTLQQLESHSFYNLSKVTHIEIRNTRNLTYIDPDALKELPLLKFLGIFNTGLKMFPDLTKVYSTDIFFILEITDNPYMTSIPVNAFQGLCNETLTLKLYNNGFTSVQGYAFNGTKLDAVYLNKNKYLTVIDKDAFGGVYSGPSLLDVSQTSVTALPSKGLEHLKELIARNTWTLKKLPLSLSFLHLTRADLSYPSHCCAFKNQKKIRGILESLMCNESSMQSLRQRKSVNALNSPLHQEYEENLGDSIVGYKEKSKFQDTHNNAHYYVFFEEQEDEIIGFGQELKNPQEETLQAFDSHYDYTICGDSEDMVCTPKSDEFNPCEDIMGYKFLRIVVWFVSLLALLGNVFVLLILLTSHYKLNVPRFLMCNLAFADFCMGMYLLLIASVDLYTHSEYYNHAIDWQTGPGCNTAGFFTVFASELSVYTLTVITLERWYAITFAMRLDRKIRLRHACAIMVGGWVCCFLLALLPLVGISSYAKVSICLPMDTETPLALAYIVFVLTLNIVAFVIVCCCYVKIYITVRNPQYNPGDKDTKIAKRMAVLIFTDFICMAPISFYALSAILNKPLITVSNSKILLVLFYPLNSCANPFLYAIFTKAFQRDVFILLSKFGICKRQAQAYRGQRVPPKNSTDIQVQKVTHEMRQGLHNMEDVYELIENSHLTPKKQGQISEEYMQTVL

cAMP production (cAMP released into medium, RIA) by JP09 cells | Substance
70 pmol/mL | feline thyrotropin yoked polypeptide (β-subunit-CTP-α-subunit) (ligand)
25 pmol/mL | feline thyrotropin (fTSH) α/β heterodimer (from UniProt Q52R91 25-120; Q52R90 21-132) (ligand)
